Measurements as given in patent US9035028B2, “Temperature sensitive conjugate compositions” (Emory University, priority 2010, dated 2015).
Where a SMILES comes first, the peptide text is derived from it. Bridges are numbered along the chain shown (N, C = ends). [ ]: non-standard residue; d: D form. hArg = N=C(N)NCCCC[C@H](N)C(=O)O; Mpa = O=C(O)CCS

Key:
[1] = target: T1, αv/β3 integrins on vascular cells (Homo sapiens, UniProt P05106+P06756); details: cited from earlier work
T1 construct: host or cells: vascular cells (not specified)

[2] = tested on: activated human platelets; test: Microscopic analysis of platelet aggregates; type: cell-based; details: both temperatures (22° C. and 37° C.)
Method: For the microscopic analysis of platelet aggregates at different temperatures, non-diluted human PRP was placed onto a glass slide and ADP was added to a final concentration of 20 μM, in the presence and absence of EMP-scFv (50 μg/mL). Abciximab was used as a positive control at a concentration of 10 μg/mL. The experiments were conducted at 22° C. and 37° C. Phase contrast microscopy images were taken using an Olympus CKX41 microscope.

[3] = target: GPIIb/IIIa (Homo sapiens, UniProt P05106+P08514); test: Specificity of scFv (studies in applicant's laboratory); type: binding
[4] = in contrast to conformation unspecific GPIIb/IIIa inhibitors; cited from earlier work
[5] = Circular dichroism (CD) spectra and thermal transition profile; type: physicochemical
Method: The mathematical fitting of the CD data allowed the determination of the transition temperature (Tt) resulting from conformational change of EMP as the temperature is increased. The mathematical fitting of the CD data to the van't Hoff equation allowed the determination of the transition temperature (Tt) resulting from conformational change of EMP and EMP-scFv as the temperature is increased.
Circular dichroism (CD) spectra were recorded on a Jasco J-810 spectropolarimeter equipped with a PFD-425S Peltier temperature control unit in 0.1 cm sealed quartz cells at concentrations of 7.5 μM (EMP), 8.4 μM (scFv) and 4.1 μM (EMP-scFv) in 50 mM sodium phosphate buffer, pH 7.4. Temperature/wavelength CD-scans were performed within the temperature range from 5° C. to 35° C. with equilibration for 10 min at each temperature. Spectra were obtained from 260 to 190 nm at a resolution of 0.5 nm and at a scanning speed of 50 nm/min. The CD curves represented the average of five measurements and were smoothed using the means-movement method on the interval analysis of the spectral manager program. CD data are reported as mean residue ellipticity ([θ], deg cm^2 dmol^−1). Thermal transition curves were plotted by the mean residue ellipticity as a function of temperature for the disappearance of the random coil and the appearance of the β-turn structure.

[6] = target: T2, GPIIb/IIIa (integrin alphaIIb beta3) on human platelets (human, UniProt P08514 32-1039; P05106 27-788); test: flow cytometry, resting and ADP-activated human platelets, 22° C., 32° C. and 37° C.
T2 construct: whole, on cells; also called GPIIb/IIIa receptor; glycoprotein IIb/IIIa

[7] = target: T3, GPIIb/IIIa on human platelets (Homo sapiens, UniProt P05106+P08514); test: Flow cytometry: binding to human platelets; details: regardless of the temperature
T3 construct: endogenous in cells
Method: Human blood was collected by venipuncture with a 21-gauge butterfly needle from healthy volunteers and anticoagulated with citric acid. Platelet-rich plasma (PRP) was obtained by centrifugation (GS-6R centrifuge, Beckman Coulter) at 100×g at room temperature for 10 min.
Human PRP was diluted 1/50 in modified Tyrode's buffer containing 2 mM MgCl2 and 2 mM CaCl2. Platelets were either activated by addition of 20 μM ADP, or non activated, followed by the incubation with 15 and 50 μg/mL EMP-scFv fusion protein or EMP at 22° C., 32° C. and at 37° C. for 15 min. Mouse platelets were either pre-activated for 10 min by addition of 0.1 U/mL thrombin (Enzyme Research Laboratories), or non activated, before the incubation with 15 and 50 μg/mL of EMP-scFv fusion protein at 22° C., 32° C. or 37° C. for 15 min. In both, human and mouse samples, EMP-scFv was detected via 15 min in-dark incubation with secondary antibody (Penta-His Alexa Fluor 488, Qiagen) directed against the His(6)-tag of the single-chain antibody.
In re-warming experiments, activated and non-activated diluted human PRP was incubated with 15 and 50 μg/mL of EMP-scFv for 15 minutes at 22° C., followed by a 15-min in dark incubation with secondary Penta-His Alexa Fluor 488 antibody. Half of the reaction was then fixed with 1× Cell FIX, while the other half was incubated at 37° C. for either 15 or 30 minutes, before being fixed and measured in FACS.

T1 sequence (P06756 31-889 limits assumed): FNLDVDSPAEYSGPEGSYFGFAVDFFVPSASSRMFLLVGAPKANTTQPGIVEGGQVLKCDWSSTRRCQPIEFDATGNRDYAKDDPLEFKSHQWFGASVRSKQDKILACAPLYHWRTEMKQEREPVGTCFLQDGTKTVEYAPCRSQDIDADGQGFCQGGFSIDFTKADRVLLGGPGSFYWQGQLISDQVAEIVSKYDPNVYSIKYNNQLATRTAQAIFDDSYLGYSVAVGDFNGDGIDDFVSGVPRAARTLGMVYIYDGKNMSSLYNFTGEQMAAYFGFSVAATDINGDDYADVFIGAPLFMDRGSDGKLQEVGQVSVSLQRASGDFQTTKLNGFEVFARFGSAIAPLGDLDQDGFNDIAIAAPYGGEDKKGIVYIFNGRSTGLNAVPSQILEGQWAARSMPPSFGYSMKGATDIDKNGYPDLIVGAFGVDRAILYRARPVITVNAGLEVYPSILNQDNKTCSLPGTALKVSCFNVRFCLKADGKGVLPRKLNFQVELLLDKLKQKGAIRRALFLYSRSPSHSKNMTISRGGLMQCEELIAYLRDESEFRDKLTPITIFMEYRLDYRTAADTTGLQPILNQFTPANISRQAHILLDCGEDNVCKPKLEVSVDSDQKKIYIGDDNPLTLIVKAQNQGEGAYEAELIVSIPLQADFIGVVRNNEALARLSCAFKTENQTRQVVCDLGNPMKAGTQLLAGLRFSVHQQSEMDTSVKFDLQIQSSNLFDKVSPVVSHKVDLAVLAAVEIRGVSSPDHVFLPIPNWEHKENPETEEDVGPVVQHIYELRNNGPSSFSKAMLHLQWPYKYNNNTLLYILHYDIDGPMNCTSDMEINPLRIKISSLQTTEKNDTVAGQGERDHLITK
T1 sequence (P06756 891-1048 partner limits assumed): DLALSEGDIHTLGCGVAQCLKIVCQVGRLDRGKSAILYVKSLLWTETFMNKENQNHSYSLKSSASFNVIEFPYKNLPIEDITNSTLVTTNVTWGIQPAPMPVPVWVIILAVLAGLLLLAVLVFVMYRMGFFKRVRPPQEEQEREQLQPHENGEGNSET
T1 sequence (P05106 27-788): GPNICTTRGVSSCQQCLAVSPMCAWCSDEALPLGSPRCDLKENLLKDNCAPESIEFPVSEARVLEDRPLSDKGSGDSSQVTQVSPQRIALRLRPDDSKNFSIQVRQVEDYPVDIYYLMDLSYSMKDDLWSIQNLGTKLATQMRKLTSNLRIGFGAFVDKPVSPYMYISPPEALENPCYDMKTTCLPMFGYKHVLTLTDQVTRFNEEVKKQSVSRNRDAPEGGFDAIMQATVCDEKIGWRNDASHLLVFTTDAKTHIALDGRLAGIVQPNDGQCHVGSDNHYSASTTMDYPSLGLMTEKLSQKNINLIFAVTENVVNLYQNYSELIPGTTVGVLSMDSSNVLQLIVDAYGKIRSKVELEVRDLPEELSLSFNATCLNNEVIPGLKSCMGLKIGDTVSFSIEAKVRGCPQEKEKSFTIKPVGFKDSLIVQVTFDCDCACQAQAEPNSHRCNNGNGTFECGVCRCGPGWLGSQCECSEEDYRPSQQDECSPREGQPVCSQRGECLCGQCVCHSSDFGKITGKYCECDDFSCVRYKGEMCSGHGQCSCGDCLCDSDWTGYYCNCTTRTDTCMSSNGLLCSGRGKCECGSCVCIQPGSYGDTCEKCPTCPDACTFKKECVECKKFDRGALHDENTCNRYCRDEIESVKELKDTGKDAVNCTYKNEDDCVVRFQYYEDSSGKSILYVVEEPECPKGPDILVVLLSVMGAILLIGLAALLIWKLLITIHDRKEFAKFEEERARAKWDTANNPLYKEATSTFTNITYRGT

N=C(N)NCCCC[C@@H]1NC(=O)CCSSC[C@@H](C(N)=O)NC(=O)[C@@H]2CCCN2C(=O)[C@H](Cc2c[nH]c3ccccc23)NC(=O)[C@H](CC(=O)O)NC(=O)CNC1=O [eptifibatide] ([Mpa][hArg]GDWPC-NH2; disulfide 1-7)
ligand binding to αv/β3 integrins on vascular cells [1]: antagonize ligand binding

abciximab [reference compound]
ligand binding to αv/β3 integrins on vascular cells [1]: antagonize ligand binding | aggregation of activated human platelets (microscopy) [2]: abolishes aggregation

B1: scFv: activation-specific GPIIb/IIIa-blocking single-chain antibody, SEQ ID NO: 13 (protein)
scFv: MAEVQLVESGGGLVQPGGSLRLSCAASGFMFSRYAMSWVRQAPGKGPEWVSGISGSGGSTYYADSVKGRFTVSRDNSKNTLYLQMNSLRAEDTAVYYCARIFTHRSRGDVPDQTSFDYWGQGTLVTVSSGSASAPKLEEGEFSEARVSSELTQDPAVSVALGQTVRITCQGDSLRNFYASWYQQKPGQAPTLVIYGLSKRPSGIPDRFSASSSGNTASLTITGAQAEDEADYYCLLYYGGGQQGVFGGGTKLTVLRQPKAAPSVTLFPPSSAAAGSEQKLISEEDLNS
specificity of binding [3]: GPIIb/IIIa-specific and binds to activated platelets exclusively | bleeding time [4]: does not prolong bleeding time | conformational changes in CD ([5]; temperature increased up to 35° C.): No significant conformational changes

B2: EMP alone (elastin-mimetic polypeptide without scFv) (other)
chain: MAVPAVGIPAVGIPAVGIPAVGIPAVGIPAVGIPAVGIPAVGIPAVGIPAVGIPAVGIPAVGIPAVGIPAVGIPAVGIPAVGIPAVGIPAVGIPAVGIPAVGIPAVGIPAVGIPAVGIPAVGIPAVGIPAVGIPAVGIPAVGIPAVGIPAVGIPAVGIPAVGIPAVGIPAVGIPAVGIPAVGIPAVGIPAVGIPAVGIPAVGIPAVGIPAVGIPAVGIPAVGIPAVGIPAVGIPAVGIPAVGIPAVGIPAVGIPAVGIPAVGIPAVGIPAVGIPAVGIPAVGIPAVGIPAVGIPAVGIPAVGIPAVGIPAVGIPAVGIPAVGIPAVGIPAVGIPAVGIPAVGIPAVGIPAVGIPAVGIPAVGIPAVGIPAVGIPAVGIPAVGIPAVGIPAVGIPAVGIPAVGIP
binding result [6]: no binding (tested: 15 and 50 µg/mL)

B3: EMP: elastin mimetic polypeptide, sixteen repeats of monomer (IPAVG)5, SEQ ID NO: 11, approximately 35 kDa (protein)
chain: B2 chain
binding to resting or activated platelets [7]: did not bind | transition temperature (Tt) ([5]; CD data at 198 and 220 nm, van't Hoff fit): approximately 26 °C
